Here are results for eight molecules from patent publication US20210070843A1.

First the molecules themselves.
B1: S06 (antibody, V domains shown)
VH: EVQLVESGGGLVQPGGSLRLSCAASGFTIGGGWIHWVRQAPGKGLEWVAFIGPYGGSTFYADSVKGRFTISADTSKNTAYLQMNSLRAEDTAVYYCARFNFGFWNHMDYWGQGTLVTVSS
VL: DIQMTQSPSSLSASVGDRVTITCRASQDVSSWVAWYQQKPGKAPKLLIYGTTFLHSGVPSRFSGSGSGTDFTLTISSLQPEDFATYYCQQYYNGPLTFGQGTKVEIKR
B2: Do1 (antibody, V domains shown)
VH: EVQLVESGGGLVQPGGSLRLSCAASGFTIDNGSIHWVRQAPGKGLEWVAWIGPYGGFTSYADSVKGRFTISADTSKNTAYLQMNSLRAEDTAVYYCARFYGSGSSSFMDYWGQGTLVTVSS
VL: B1 VL with S30W, S31G, W32G, Y49F, G50F, T51S, T52R, F53Y, H55Y
B3: S29 (antibody, V domains shown)
VH: EVQLVESGGGLVQPGGSLRLSCAASGFTISDYWIHWVRQAPGKGLEWVASIWPSGGYTYYADSVKGRFTISADTSKNTAYLQMNSLRAEDTAVYYCARFNWIVGHYMDYWGQGTLVTVSS
VL: B1 VL with S30F, S31G, W32G, G50W, T51S, T52S, F53W, H55Y, N93D, L96I
B4: S45 (antibody, V domains shown)
VH: EVQLVESGGGLVQPGGSLRLSCAASGFTINGSSIHWVRQAPGKGLEWVAYIGPFGGSTYYADSVKGRFTISADTSKNTAYLQMNSLRAEDTAVYYCARFWHGYNLYMDYWGQGTLVTVSS
VL: B1 VL with S30G, S31W, T51A, T52R, H55Y, Y92F
B5: S48 (antibody, V domains shown)
VH: B1 VH with A24V, G31D, W33S, F50S, F59Y, N100H, F101Y, F103Y, H106N
VL: B1 VL with S30G, S31W, T52R, F53W, H55Y, L78V, N93S, L96I
B6: S10 (antibody, V domains shown)
VH: EVQLVESGGGLVQPGGSLRLSCAASGFTIGGYGIHWVRQAPGKGLEWVASIGPSWGFTFYADSVKGRFTISADTSKNTAYLQMNSLRAEDTAVYYCARFNWVINGVTDYWGQGTLVTVSS
VL: B1 VL with S31Y, W32Y, Y49F, G50W, T51S, H55Y, N93D, G94S, L96M
B7: S11 (antibody, V domains shown)
VH: B1 VH with G30D, G31N, W33G, F50W, F59S, N100G, F103L, W104H, N105D, H106L
VL: B1 VL with S30Y, G50Y, T51S, T52S, H55Y
B8: P03 (antibody, V domains shown)
VH: EVQLVESGGGLVQPGGSLRLSCAASGFTIDSFGIHWVRQAPGKGLEWVAFIGPFGGSTFYADSVKGRFTISADTSKNTAYLQMNSLRAEDTAVYYCARFDSNSYSYHGIMDYWGQGTLVTVSS
VL: DIQMTQSPSSLSASVGDRVTITCRASQDVWGYVAWYQQKPGKAPKLLISWSGSLYSGVPSRFSGSGSGTDFTLTISSLQPEDFATYYCQQYYNWPVTFGQGTKVEIKR

Changes are numbered by the printed parent chain. Bounds are passed on as bounds.

For the first assay, the target named is H7 A/Anhui/1-BALF_RG17/2013 HA on H7N9 AH/13 pseudo virus (influenza A virus A/Anhui/1-BALF_RG17/2013 (H7N9)). The assay is described as follows: cell-based or functional assay.
For the molecule B1, the IC50 of pseudo virus neutralization H7N9 AH/13 was over 200 µg/mL.

As to B2, the IC50 of pseudo virus neutralization H7N9 AH/13 was over 200 µg/mL.

Turning to B3, the IC50 of pseudo virus neutralization H7N9 AH/13 is over 200 µg/mL.

In turn, B4 had an IC50 of pseudo virus neutralization H7N9 AH/13 of over 200 µg/mL.

B5 gave an IC50 of pseudo virus neutralization H7N9 AH/13 of over 200 µg/mL.

B6: the IC50 of pseudo virus neutralization H7N9 AH/13 was over 200 µg/mL.

Molecule B7 gave an IC50 of pseudo virus neutralization H7N9 AH/13 of over 200 µg/mL.

Consider B8, for which the IC50 of pseudo virus neutralization H7N9 AH/13 is over 200 µg/mL.

A further assay deals with cell surface-expressed H3N2 WN/05 HA trimer (influenza A virus A/Wisconsin/67/2005 (H3N2)). The assay is described as follows: cell-based or functional assay.
The molecule B1 displayed an IC50 of pseudo virus neutralization H3N2 WN/05 of over 20 µg/mL.

In turn, B2 showed an IC50 of pseudo virus neutralization H3N2 WN/05 of over 20 µg/mL.

B3 registered an IC50 of pseudo virus neutralization H3N2 WN/05 of over 20 µg/mL.

B4 displayed an IC50 of pseudo virus neutralization H3N2 WN/05 of over 20 µg/mL.

Take B5: the IC50 of pseudo virus neutralization H3N2 WN/05 is over 20 µg/mL.

B6 yielded an IC50 of pseudo virus neutralization H3N2 WN/05 of over 20 µg/mL.

B7 gave an IC50 of pseudo virus neutralization H3N2 WN/05 of over 20 µg/mL.

As for B8, the IC50 of pseudo virus neutralization H3N2 WN/05 was over 20 µg/mL.

For the next assay, the target named is full-length H5 A/Vietnam/1203/2004 HA expressed on 293T cells (influenza A virus A/Vietnam/1203/2004 (H5N1)). Briefly: cell-based or functional assay.
B1 came in with an IC50 of pseudo virus neutralization H5N1 VN/04 of over 200 µg/mL.

B2 registered an IC50 of pseudo virus neutralization H5N1 VN/04 of over 200 µg/mL.

In turn, B3 came in with an IC50 of pseudo virus neutralization H5N1 VN/04 of over 200 µg/mL.

In turn, B4 gave an IC50 of pseudo virus neutralization H5N1 VN/04 of over 200 µg/mL.

The molecule B5 came in with an IC50 of pseudo virus neutralization H5N1 VN/04 of over 200 µg/mL.

In the case of B6, the IC50 of pseudo virus neutralization H5N1 VN/04 is 0.267 µg/mL.

For the molecule B7, the IC50 of pseudo virus neutralization H5N1 VN/04 was over 200 µg/mL.

Take B8: the IC50 of pseudo virus neutralization H5N1 VN/04 was over 200 µg/mL.

In a further assay the target is full-length H1 A/California/07/2009 HA expressed on 293T cells (influenza A virus A/California/07/2009 (H1N1)). Briefly: cell-based or functional assay.
Regarding B1, the IC50 of pseudo virus neutralization H1N1 CA/09 is over 100 µg/mL and the IC50 of true virus neutralization H1N1 CA/09 is over 500 µg/mL.

Molecule B2 gave an IC50 of pseudo virus neutralization H1N1 CA/09 of over 100 µg/mL and an IC50 of true virus neutralization H1N1 CA/09 of over 500 µg/mL.

For the molecule B3, the IC50 of pseudo virus neutralization H1N1 CA/09 is 0.672 µg/mL and the IC50 of true virus neutralization H1N1 CA/09 is over 500 µg/mL.

For B4, the IC50 of pseudo virus neutralization H1N1 CA/09 was over 100 µg/mL and the IC50 of true virus neutralization H1N1 CA/09 was over 500 µg/mL.

B5: the IC50 of pseudo virus neutralization H1N1 CA/09 was over 100 µg/mL and the IC50 of true virus neutralization H1N1 CA/09 was over 500 µg/mL.

B6 returned an IC50 of pseudo virus neutralization H1N1 CA/09 of 0.349 µg/mL and an IC50 of true virus neutralization H1N1 CA/09 of 1560 µg/mL.

As to B7, the IC50 of pseudo virus neutralization H1N1 CA/09 is over 100 µg/mL and the IC50 of true virus neutralization H1N1 CA/09 was over 500 µg/mL.

For the molecule B8, the IC50 of pseudo virus neutralization H1N1 CA/09 was over 100 µg/mL and the IC50 of true virus neutralization H1N1 CA/09 is over 500 µg/mL.

A further assay concerns the target recombinant H5N1 VN/04 HA trimer (hemagglutinin ectodomain of A/Vietnam/1203/2004) (influenza A virus A/Vietnam/1203/2004 (H5N1)). The assay is described as follows: ELISA, coated HA. On the technique in general: In an ELISA, binding on a coated surface is turned into a signal by an enzyme label.
As a reminder, the EC50 is the concentration needed to bring the measured effect to its halfway point. As for B1, the EC50 stood at 0.311 µg/mL.

On to B2, for which the EC50 was over 10 µg/mL.

For B3, the EC50 was over 10 µg/mL.

Regarding B4, the EC50 worked out at 0.23 µg/mL.

As for B5, the EC50 is 0.0737 µg/mL.

As for B6, the EC50 was 0.259 µg/mL.

With B7, the EC50 was 0.0781 µg/mL.

With B8, the EC50 was over 10 µg/mL.

A further assay deals with cell surface-expressed H3N2 WN/05 HA trimer (influenza A virus A/Wisconsin/67/2005 (H3N2)). The assay is described as follows: flow cytometry, HA-expressing 293T.
The molecule B1 displayed a max. MFI of 135 MFI.

As for B2, the max. MFI came to 278 MFI.

As for B3, the max. MFI is 188 MFI.

B4 displayed an EC50 of 15.8 µg/mL and a max. MFI of 529 MFI.

As to B5, the max. MFI was 122 MFI.

B6: the EC50 was 7.86 µg/mL and the max. MFI came to 511 MFI.

B7 gave a max. MFI of 207 MFI.

As for B8, the max. MFI came to 147 MFI.

The target in a further assay is full-length H5 A/Vietnam/1203/2004 HA expressed on 293T cells (influenza A virus A/Vietnam/1203/2004 (H5N1)). Briefly: flow cytometry, HA-expressing 293T.
Regarding B1, the max. MFI was 249 MFI.

In turn, B2 showed a max. MFI of 313 MFI.

B3 yielded a max. MFI of 367 MFI.

In turn, B4 showed a max. MFI of 451 MFI.

As to B5, the EC50 is 1.92 µg/mL and the max. MFI is 875 MFI.

As to B6, the EC50 came out at 0.79 µg/mL and the max. MFI was 1100 MFI.

Turning to B7, the max. MFI turned out to be 434 MFI.

As for B8, the max. MFI worked out at 216 MFI.

The target of the next assay is full-length H1 A/California/07/2009 HA expressed on 293T cells (influenza A virus A/California/07/2009 (H1N1)). The assay is described as follows: flow cytometry, HA-expressing 293T. In general terms: A flow cytometer gives signals particle by particle.
Regarding B1, the EC50 was found to be 3.98 µg/mL and the max. MFI stood at 1650 MFI.

The molecule B2 came in with a max. MFI of 228 MFI.

For B3, the EC50 is 4.22 µg/mL and the max. MFI came out at 6280 MFI.

Turning to B4, the EC50 was found to be 4.47 µg/mL and the max. MFI was found to be 2470 MFI.

As to B5, the EC50 amounted to 4.86 µg/mL and the max. MFI was 6240 MFI.

B6 returned a half-maximal effective concentration (EC50) of 3.38 µg/mL and a max. MFI of 10700 MFI.

Molecule B7 registered an EC50 of 4.07 µg/mL and a max. MFI of 5600 MFI.

On to B8, for which the EC50 worked out at 0.494 µg/mL and the max. MFI is 6020 MFI.
